From PMC6547726, “Advanced FRET normalization allows quantitative analysis of protein interactions including stoichiometries and relative affinities in living cells” (Scientific Reports, 2019)

T1: YFP-tagged IKKα (UniProt O15111 1-745)
T1 construct: IKKα, IKK subunit α of the NF-kappaB pathway; FRET donor; also called IKK subunit α; source: HeLa cells (clone ACC 57), transfected, in living cells
T1 sequence (looked up): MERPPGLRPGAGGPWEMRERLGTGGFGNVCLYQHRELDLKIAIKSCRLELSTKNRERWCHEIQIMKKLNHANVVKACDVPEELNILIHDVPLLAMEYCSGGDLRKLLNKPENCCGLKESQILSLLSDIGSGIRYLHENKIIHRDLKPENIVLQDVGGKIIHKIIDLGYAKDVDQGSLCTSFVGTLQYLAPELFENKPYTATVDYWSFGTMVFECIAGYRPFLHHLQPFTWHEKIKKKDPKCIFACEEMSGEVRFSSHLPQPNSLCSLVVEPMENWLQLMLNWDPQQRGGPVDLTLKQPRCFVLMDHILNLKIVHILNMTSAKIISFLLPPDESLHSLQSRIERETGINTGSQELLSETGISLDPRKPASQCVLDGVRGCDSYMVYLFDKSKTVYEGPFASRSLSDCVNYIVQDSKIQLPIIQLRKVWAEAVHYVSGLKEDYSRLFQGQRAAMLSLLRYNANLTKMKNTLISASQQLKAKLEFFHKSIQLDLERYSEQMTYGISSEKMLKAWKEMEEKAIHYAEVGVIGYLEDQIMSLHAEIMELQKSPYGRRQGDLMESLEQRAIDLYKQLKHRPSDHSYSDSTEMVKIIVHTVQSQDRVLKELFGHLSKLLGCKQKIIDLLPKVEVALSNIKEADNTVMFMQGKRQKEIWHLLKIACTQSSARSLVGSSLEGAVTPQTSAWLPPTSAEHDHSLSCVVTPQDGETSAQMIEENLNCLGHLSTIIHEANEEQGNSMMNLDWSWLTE


Legend:
[1] = target: YFP-p65 (UniProt Q04206); experiment: FRET or BRET; 3-filter FRET by flow cytometry (CYTOFLEX S) of living transfected HeLa cells, five plasmid ratios; DFRET of single cells fitted to a law-of-mass-action model (Ka^app apparent, z, FRETmax)
[2] = target: T1, YFP-tagged IKKα; experiment: as above; settings: partners not purified

Chain of YFP-p65 (Q04206 whole entry): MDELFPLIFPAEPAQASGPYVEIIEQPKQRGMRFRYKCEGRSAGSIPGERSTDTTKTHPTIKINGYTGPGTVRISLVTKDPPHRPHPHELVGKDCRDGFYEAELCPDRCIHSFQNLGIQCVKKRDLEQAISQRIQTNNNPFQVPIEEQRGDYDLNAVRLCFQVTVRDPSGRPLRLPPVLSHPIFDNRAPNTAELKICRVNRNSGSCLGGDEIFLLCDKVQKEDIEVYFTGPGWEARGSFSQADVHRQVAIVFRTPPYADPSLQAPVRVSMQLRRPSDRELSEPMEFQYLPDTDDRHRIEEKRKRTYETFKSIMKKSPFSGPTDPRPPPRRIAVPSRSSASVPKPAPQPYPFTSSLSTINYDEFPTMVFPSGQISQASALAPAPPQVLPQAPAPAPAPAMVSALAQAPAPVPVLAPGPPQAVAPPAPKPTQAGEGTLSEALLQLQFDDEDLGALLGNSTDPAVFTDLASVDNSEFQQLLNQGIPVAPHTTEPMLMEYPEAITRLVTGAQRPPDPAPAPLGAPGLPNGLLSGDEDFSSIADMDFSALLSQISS
Chain of IκB-mCherry (P25963 whole entry): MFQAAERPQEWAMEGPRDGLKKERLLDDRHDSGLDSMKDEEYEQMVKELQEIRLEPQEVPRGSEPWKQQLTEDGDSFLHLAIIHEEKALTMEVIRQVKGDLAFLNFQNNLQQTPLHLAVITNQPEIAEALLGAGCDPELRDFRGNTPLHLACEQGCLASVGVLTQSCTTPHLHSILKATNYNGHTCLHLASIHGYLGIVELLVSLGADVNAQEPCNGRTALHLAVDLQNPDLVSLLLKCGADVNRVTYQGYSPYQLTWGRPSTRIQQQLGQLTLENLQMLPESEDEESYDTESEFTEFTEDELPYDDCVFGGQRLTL

Row | stoichiometry N (acceptor (IκB) per donor (p65)) [1] | stoichiometry N [2] | Molecule
1 | 0.5 |  | IκB-mCherry (from UniProt P25963 1-317) (natural protein)
2 |  | ~1 acceptor (IKKβ) per donor (IKKα) | mCherry-tagged IKKβ (natural protein, UniProt O14920 1-756, looked up, IKKβ, IKK subunit β of the NF-kappaB pathway; FRET acceptor; also called IKK subunit β; source: HeLa cells (clone ACC 57), transfected, in living cells) MSWSPSLTTQTCGAWEMKERLGTGGFGNVIRWHNQETGEQIAIKQCRQELSPRNRERWCLEIQIMRRLTHPNVVAARDVPEGMQNLAPNDLPLLAMEYCQGGDLRKYLNQFENCCGLREGAILTLLSDIASALRYLHENRIIHRDLKPENIVLQQGEQRLIHKIIDLGYAKELDQGSLCTSFVGTLQYLAPELLEQQKYTVTVDYWSFGTLAFECITGFRPFLPNWQPVQWHSKVRQKSEVDIVVSEDLNGTVKFSSSLPYPNNLNSVLAERLEKWLQLMLMWHPRQRGTDPTYGPNGCFKALDDILNLKLVHILNMVTGTIHTYPVTEDESLQSLKARIQQDTGIPEEDQELLQEAGLALIPDKPATQCISDGKLNEGHTLDMDLVFLFDNSKITYETQISPRPQPESVSCILQEPKRNLAFFQLRKVWGQVWHSIQTLKEDCNRLQQGQRAAMMNLLRNNSCLSKMKNSMASMSQQLKAKLDFFKTSIQIDLEKYSEQTEFGITSDKLLLAWREMEQAVELCGRENEVKLLVERMMALQTDIVDLQRSPMGRKQGGTLDDLEEQARELYRRLREKPRDQRTEGDSQEMVRLLLQAIQSFEKKVRVIYTQLSKTVVCKQKALELLPKVEEVVSLMNEDEKTVVRLQEKRQKELWNLLKIACSKVRGPVSGSPDSMNASRLSQPGQLMSQPSTASNSLPEPAKKSEELVAEAHNLCTLLENAIQDTVREQDQSFTALDWSWLQTEEEEHSCLEQAS
